Results from PMC6899042, “Perturbation of the titin/MURF1 signaling complex is associated with hypertrophic cardiomyopathy in a fish model and in human patients” (Disease Models & Mechanisms, 2019).

Biological target: T1, myc-tagged MURF1 (muscle-specific ring finger protein 1), full length (human, UniProt Q969Q1-1 1-353)
T1 construct: MURF1 (muscle-specific ring finger protein 1), human, full-length cDNA from bp137 to bp1198 of GenBank NM_032588, printed as aa1-aa354; Cloned into myc-tagged pCMV-Tag3. bp137-bp1198 is 354 codons, which may count the stop codon; source: COS-7 cells, transfected, in lysate (cell line named only for the A168-170 experiment)
T1 sequence (Q969Q1 whole entry, the tested form may be a part): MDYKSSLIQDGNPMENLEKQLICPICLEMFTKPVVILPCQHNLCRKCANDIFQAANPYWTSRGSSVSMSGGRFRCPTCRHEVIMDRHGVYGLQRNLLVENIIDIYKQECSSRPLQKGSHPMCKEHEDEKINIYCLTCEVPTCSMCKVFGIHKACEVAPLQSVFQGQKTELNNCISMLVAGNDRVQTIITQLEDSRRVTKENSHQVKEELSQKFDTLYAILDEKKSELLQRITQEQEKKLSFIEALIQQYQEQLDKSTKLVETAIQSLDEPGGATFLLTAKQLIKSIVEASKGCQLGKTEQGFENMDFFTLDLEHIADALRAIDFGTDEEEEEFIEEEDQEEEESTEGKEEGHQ
Assay: co-IP; GFP-tagged TTN fragment co-transfected with myc-tagged MURF1 (COS-7 cells named for A168-170); IP with anti-myc antibody (Catch and Release v2.0 Reversible Immunoprecipitation System), Western blot with anti-GFP; densitometry normalised to the input amount of GFP-TTN, WT set to 1.00 AU
Conditions: partners not purified

B1: GFP-tagged E29783V-TTN-A156 (titin Ig domain A156 with the equivalent of the medaka nsh mutation D23186V) (domain or fragment, human, UniProt Q8WZ42-11 29735-29829, looked up)
chain: LPTIDLSTMPQKTIHVPAGRPVELVIPIAGRPPPAASWFFAGSKLRESVRVTVETHTKVAKLTIRETTIRDTGEYTLELKNVTGTTSETIKVIIL
notes: numbers count on: the protein encoded by GenBank NM_133378; Cloned into pEGFP-C1; mutation made by primer-mediated mutagenesis; also called mutant-TTN-A156; nsh Ig domain
  co-precipitated amount relative to WT TTN-A156 (1.00 AU): 9.23 AU

B2: GFP-tagged S30186A-TTN-A160-161 (titin domains A160-161 with the HCM-associated mutation S30186A) (domain or fragment, human, UniProt Q8WZ42-11 30134-30326, looked up)
chain: PDYELDERYQEGIFVRQGGVIRLTIPIKGKPFPICKWTKEGQDISKRAMIATAETHTELVIKEADRGDSGTYDLVLENKCGKKAVYIKVRVIGSPNSPEGPLEYDDIQVRSVRVSWRPPADDGGADILGYILERREVPKAAWYTIDSRVRGTSLVVKGLKENVEYHFRVSAENQFGISKPLKSEEPVTPKTPL
notes: numbers count on: the protein encoded by GenBank NM_133378; Cloned into pEGFP-C1; the mutation was found in a family with HCM
  co-precipitated amount relative to WT TTN-A160-161 (1.00 AU): 3.11 AU

B3: GFP-tagged WT-TTN-A169 (titin Ig domain A169) (domain or fragment, human, UniProt Q8WZ42-11 31022-31119, looked up)
chain: PAKIHLPKTLEGMGAVHALRGEVVSIKIPFSGKPDPVITWQKGQDLIDNNGHYQVIVTRSFTSLVFPNGVERKDAGFYVVCAKNRFGIDQKTVELDVA
notes: numbers count on: the protein encoded by GenBank NM_133378; Cloned into pEGFP-C1; also called A169 domain
  co-precipitated amount relative to WT TTN-A168 (1.00 AU): 6.69 AU

B4: GFP-tagged D30994N-TTN-A168-170 (titin domains A168-A170 with the HCM-associated mutation D30994N) (domain or fragment, human, UniProt Q8WZ42-11 30928-31228, looked up)
chain: PHFKEELRNLNVRYQSNATLVCKVTGHPKPIVKWYRQGKEIIADGLKYRIQEFKGGYHQLIIASVTNDDATVYQVRATNQGGSVSGTASLEVEVPAKIHLPKTLEGMGAVHALRGEVVSIKIPFSGKPDPVITWQKGQDLIDNNGHYQVIVTRSFTSLVFPNGVERKDAGFYVVCAKNRFGIDQKTVELDVADVPDPPRGVKVSDVSRDSVNLTWTEPASDGGSKITNYIVEKCATTAERWLRVGQARETRYTVINLFGKTSYQFRVIAENKFGLSKPSEPSEPTITKEDKTRAMNYDEEV
notes: numbers count on: the protein encoded by GenBank NM_133378; Cloned into pEGFP-C1; the mutation was found in a family with HCM; also called D30994N mutant TTN-A168-170; source: COS-7 cells, transfected, in lysate
  co-precipitated amount relative to WT TTN-A168-170 (1.00 AU): 1.58 AU

B5: GFP-tagged D30994N-TTN-A168 (titin Ig domain A168 with the HCM-associated mutation D30994N) (domain or fragment, human, UniProt Q8WZ42-11 30928-31021, looked up)
chain: PHFKEELRNLNVRYQSNATLVCKVTGHPKPIVKWYRQGKEIIADGLKYRIQEFKGGYHQLIIASVTNDDATVYQVRATNQGGSVSGTASLEVEV
notes: numbers count on: the protein encoded by GenBank NM_133378; Cloned into pEGFP-C1; the mutation was found in a family with HCM; also called D30994N mutant TTN-A168
  co-precipitated amount relative to WT TTN-A168 (1.00 AU): 3.06 AU
